Measured values: patent US20240327497A1
Several values for one entry are separate records, joined by “and”; a condition that tells them apart may be missing. Equal values may be shown once.

Assays:
[1] = target: canine FcRn (FcRn large subunit with canine beta-2-microglobulin) (canine); test: SPR pH 5.5, SASA-Fc captured on BSA, FcRn 200 nM
[2] = target: canine FcRn (FcRn large subunit with canine beta-2-microglobulin) (canine); test: SPR pH 5.5, SASA-Fc captured on BSA, FcRn 400 nM
[3] = target: canine FcRn (FcRn large subunit with canine beta-2-microglobulin) (canine); test: SPR pH 5.5, SASA-Fc captured on BSA, FcRn 100-800 nM
[4] = target: canine FcRn (FcRn large subunit with canine beta-2-microglobulin) (canine); test: SPR pH 5.5, SASA-Fc captured on BSA, FcRn 200 nM; remark: listed apart in the source
[5] = target: canine FcRn (FcRn large subunit with canine beta-2-microglobulin) (canine); test: SPR pH 5.5, SASA-Fc captured on BSA, FcRn 200 nM; remark: listed apart in the source
[6] = target: canine FcRn (FcRn large subunit with canine beta-2-microglobulin) (canine); test: SPR pH 5.5, SASA-Fc captured on BSA, FcRn 200 nM; remark: listed apart in the source
[7] = target: canine FcRn (FcRn large subunit with canine beta-2-microglobulin) (canine); test: SPR pH 5.5, SASA-Fc captured on BSA, FcRn 200 nM; remark: listed apart in the source

B1: canine IgGB Fc (CH2-CH3) E380A with N-terminal SASA tag (Fc fusion, part only; not given: SASA tag, not shown: another chain or arm of the molecule; small tags and cut ends)
Fc: APEMLGGPSVFIFPPKPKDTLLIARTPEVTCVVVDLDPEDPEVQISWFVDGKQMQTAKTQPREEQFNGTYRVVSVLPIGHQDWLKGKQFTCKVNNKALPSPIERTISKARGQAHQPSVYVLPPSREELSKNTVSLTCLIKDFFPPDIDVAWQSNGQQEPESKYRTTPPQLDEDGSYFLYSKLSVDKSRWQRGDTFICAVMHEALHNHYTQESLSHSPGK
Kd [1]: 1320 nM and 1570 nM | koff [1]: 0.223 s⁻¹ and 0.239 s⁻¹ | kon [1]: 168000 M⁻¹ s⁻¹ and 152000 M⁻¹ s⁻¹ | Kd [2]: 618 nM and 747 nM | WT KD Avg/Variant KD [2]: 0.76 and 0.92 | koff [2]: 0.369 s⁻¹ and 0.18 s⁻¹ | kon [2]: 598000 M⁻¹ s⁻¹ and 241000 M⁻¹ s⁻¹

B2: canine IgGB Fc (CH2-CH3) N434R with N-terminal SASA tag (Fc fusion, part only; not given: SASA tag, not shown: another chain or arm of the molecule; small tags and cut ends)
Fc: APEMLGGPSVFIFPPKPKDTLLIARTPEVTCVVVDLDPEDPEVQISWFVDGKQMQTAKTQPREEQFNGTYRVVSVLPIGHQDWLKGKQFTCKVNNKALPSPIERTISKARGQAHQPSVYVLPPSREELSKNTVSLTCLIKDFFPPDIDVEWQSNGQQEPESKYRTTPPQLDEDGSYFLYSKLSVDKSRWQRGDTFICAVMHEALHRHYTQESLSHSPGK
Kd [3]: 182 nM | koff [3]: 0.0801 s⁻¹ | kon [3]: 440000 M⁻¹ s⁻¹ | Kd [4]: 107 nM and 159 nM | koff [4]: 0.0524 s⁻¹ and 0.0633 s⁻¹ | kon [4]: 488000 M⁻¹ s⁻¹ and 399000 M⁻¹ s⁻¹

B3: canine IgGB Fc (CH2-CH3) T250Q with N-terminal SASA tag (Fc fusion, part only; not given: SASA tag, not shown: another chain or arm of the molecule; small tags and cut ends)
Fc: APEMLGGPSVFIFPPKPKDQLLIARTPEVTCVVVDLDPEDPEVQISWFVDGKQMQTAKTQPREEQFNGTYRVVSVLPIGHQDWLKGKQFTCKVNNKALPSPIERTISKARGQAHQPSVYVLPPSREELSKNTVSLTCLIKDFFPPDIDVEWQSNGQQEPESKYRTTPPQLDEDGSYFLYSKLSVDKSRWQRGDTFICAVMHEALHNHYTQESLSHSPGK
Kd [5]: 2590 nM and 2840 nM | koff [5]: 0.258 s⁻¹ and 0.268 s⁻¹ | kon [5]: 99600 M⁻¹ s⁻¹ and 94300 M⁻¹ s⁻¹

B4: canine IgGB Fc (CH2-CH3) D312P with N-terminal SASA tag (Fc fusion, part only; not given: SASA tag, not shown: another chain or arm of the molecule; small tags and cut ends)
Fc: APEMLGGPSVFIFPPKPKDTLLIARTPEVTCVVVDLDPEDPEVQISWFVDGKQMQTAKTQPREEQFNGTYRVVSVLPIGHQPWLKGKQFTCKVNNKALPSPIERTISKARGQAHQPSVYVLPPSREELSKNTVSLTCLIKDFFPPDIDVEWQSNGQQEPESKYRTTPPQLDEDGSYFLYSKLSVDKSRWQRGDTFICAVMHEALHNHYTQESLSHSPGK
Kd [6]: 291 nM and 439 nM | koff [6]: 0.0894 s⁻¹ and 0.11 s⁻¹ | kon [6]: 307000 M⁻¹ s⁻¹ and 251000 M⁻¹ s⁻¹

B5: canine IgGB Fc (CH2-CH3) D378V with N-terminal SASA tag (Fc fusion, part only; not given: SASA tag, not shown: another chain or arm of the molecule; small tags and cut ends)
Fc: APEMLGGPSVFIFPPKPKDTLLIARTPEVTCVVVDLDPEDPEVQISWFVDGKQMQTAKTQPREEQFNGTYRVVSVLPIGHQDWLKGKQFTCKVNNKALPSPIERTISKARGQAHQPSVYVLPPSREELSKNTVSLTCLIKDFFPPDIVVEWQSNGQQEPESKYRTTPPQLDEDGSYFLYSKLSVDKSRWQRGDTFICAVMHEALHNHYTQESLSHSPGK
Kd [7]: 693 nM and 873 nM | koff [7]: 0.159 s⁻¹ and 0.16 s⁻¹ | kon [7]: 229000 M⁻¹ s⁻¹ and 184000 M⁻¹ s⁻¹

B6: canine IgGB Fc (CH2-CH3) T250E with N-terminal SASA tag (Fc fusion, part only; not given: SASA tag, not shown: another chain or arm of the molecule; small tags and cut ends)
Fc: APEMLGGPSVFIFPPKPKDELLIARTPEVTCVVVDLDPEDPEVQISWFVDGKQMQTAKTQPREEQFNGTYRVVSVLPIGHQDWLKGKQFTCKVNNKALPSPIERTISKARGQAHQPSVYVLPPSREELSKNTVSLTCLIKDFFPPDIDVEWQSNGQQEPESKYRTTPPQLDEDGSYFLYSKLSVDKSRWQRGDTFICAVMHEALHNHYTQESLSHSPGK
Kd [5]: 2480 nM and 1660 nM | koff [5]: 0.284 s⁻¹ and 0.287 s⁻¹ | kon [5]: 114000 M⁻¹ s⁻¹ and 172000 M⁻¹ s⁻¹

B7: canine IgGB Fc (CH2-CH3) N434W with N-terminal SASA tag (Fc fusion, part only; not given: SASA tag, not shown: another chain or arm of the molecule; small tags and cut ends)
Fc: APEMLGGPSVFIFPPKPKDTLLIARTPEVTCVVVDLDPEDPEVQISWFVDGKQMQTAKTQPREEQFNGTYRVVSVLPIGHQDWLKGKQFTCKVNNKALPSPIERTISKARGQAHQPSVYVLPPSREELSKNTVSLTCLIKDFFPPDIDVEWQSNGQQEPESKYRTTPPQLDEDGSYFLYSKLSVDKSRWQRGDTFICAVMHEALHWHYTQESLSHSPGK
Kd [3]: 101 nM | koff [3]: 0.045 s⁻¹ | kon [3]: 446000 M⁻¹ s⁻¹ | Kd [4]: 40.4 nM and 75.7 nM
